Data on 3 molecules can be found in paper PMC5602324.

Read-outs that look alike come from different tables or passages of the source.

For assay [1], the target named is microtubule (tubulin) (Sus scrofa) (UniProt Q2XVP4). To be noted: cited from earlier work.
For assay [2] the target is unchanged. To be noted: cited from earlier work. This is another data set of the same source.
For assay [3] the target is unchanged. To be noted: cited from earlier work. This is another data set of the same source.
Assay [4] concerns the target paclitaxel-stabilised microtubules (polymerised αβ-tubulin) (bovine) (UniProt Q6B856).
The target is the same in assay [5]. The assay can be described thus: co-sedimentation; no nucleotide (NN, apyrase-treated); 2.5 μM MKLP2-MD with 0–10 μM polymerised tubulin (paclitaxel-stabilised MTs), BRB80 plus 25 mM NaCl, 25°C, 100,000 × g; quadratic fit assuming 1:1 motor:tubulin dimer; apparent.
The target is the same in assay [6]. The assay can be described thus: co-sedimentation; ADP state (1 mM ADP); 2.5 μM MKLP2-MD with 0–10 μM polymerised tubulin (paclitaxel-stabilised MTs), BRB80 plus 25 mM NaCl, 25°C, 100,000 × g; quadratic fit assuming 1:1 motor:tubulin dimer; apparent.
For assay [7] the target is unchanged. The assay can be described thus: co-sedimentation; ADP.AlFx state (1 mM nucleotide); 2.5 μM MKLP2-MD with 0–10 μM polymerised tubulin (paclitaxel-stabilised MTs), BRB80 plus 25 mM NaCl, 25°C, 100,000 × g; quadratic fit assuming 1:1 motor:tubulin dimer; apparent.
The target is the same in assay [8]. The assay can be described thus: co-sedimentation; AMPPNP state (1 mM nucleotide); 2.5 μM MKLP2-MD with 0–10 μM polymerised tubulin (paclitaxel-stabilised MTs), BRB80 plus 25 mM NaCl, 25°C, 100,000 × g; quadratic fit assuming 1:1 motor:tubulin dimer; apparent.
The target is the same in assay [9]. This is another data set of the same source.

With “Kin3 (Kif1a) motor domain (from UniProt P33173)”, the Kd in assay [1] was 6.8 nM; in assay [2], 5.9 nM; in assay [3], 4.2 nM.

B1: MKLP2 motor domain, construct 25–520 (domain or fragment)
chain: ESTAADLRSVVRKDLLSDCSVISASLEDKQALLEDTSEKVKVYLRIRPFLTSELDRQEDQGCVCIENTETLVLQAPKDSFALKSNERGVGQATHKFTFSQIFGPEVGQVAFFNLTMKEMVKDVLKGQNWLIYTYGVTNSGKTYTIQGTSKDAGILPQSLALIFNSLQGQLHPTPDLKPLLSNEVIWLDSKQIRQEEMKKLSLLIGGLQEEELSTSVKKRVHTESRIGASNSFDSGVAGLSSTSQFTSSSQLDETSQLWAQPDTVPVSVPADIRFSVWISFFEIYNELLYDLLEPPSHQHKRQTLRLCEDQNGNPYVKDLNWIHVRDVEEAWKLLKVGRKNQSFASTHMNQQSSRSHSIFSIRILHLQGEGDIVPKISELSLCDLAGSERCKHQKSGERLKEAGNINTSLHTLGRCIAALRQNQQNRSKQNLIPFRDSKLTRVFQGFFTGRGRSCMIVNVNPCASTYDETLHAAKFSALASQLVHAPPVHLGIPSLH
For B1, in assay [4], the MT-stimulated steady-state ATPase, K0.5,MT (Michaelis Menten fit of velocity against [tubulin]) stood at 1.07 µM. Besides, the Kd in [5] is 43 nM; in assay [6], 363 nM; in [7], 355 nM; in assay [8] it was 43 nM.

B2: MKLP2 motor domain, construct 1–520 (domain or fragment)
chain: MSHRILSPPAGLLSDEDVVDSPILESTAADLRSVVRKDLLSDCSVISASLEDKQALLEDTSEKVKVYLRIRPFLTSELDRQEDQGCVCIENTETLVLQAPKDSFALKSNERGVGQATHKFTFSQIFGPEVGQVAFFNLTMKEMVKDVLKGQNWLIYTYGVTNSGKTYTIQGTSKDAGILPQSLALIFNSLQGQLHPTPDLKPLLSNEVIWLDSKQIRQEEMKKLSLLIGGLQEEELSTSVKKRVHTESRIGASNSFDSGVAGLSSTSQFTSSSQLDETSQLWAQPDTVPVSVPADIRFSVWISFFEIYNELLYDLLEPPSHQHKRQTLRLCEDQNGNPYVKDLNWIHVRDVEEAWKLLKVGRKNQSFASTHMNQQSSRSHSIFSIRILHLQGEGDIVPKISELSLCDLAGSERCKHQKSGERLKEAGNINTSLHTLGRCIAALRQNQQNRSKQNLIPFRDSKLTRVFQGFFTGRGRSCMIVNVNPCASTYDETLHAAKFSALASQLVHAPPVHLGIPSLH
Molecule B2 came in with an MT-stimulated steady-state ATPase, K0.5,MT (Michaelis Menten fit of velocity against [tubulin]) in assay [9] of 0.93 µM.
